# ± gives the uncertainty stated by the source.
# Experiment: amyloid nucleation score (Sup35N fusion, yeast selection) (log enrichment); library NNK2; higher = more nucleation; inactive = no reads after selection
# How it was run: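 The nucleation score equals the log enrichment of output over input reads from DiMSum, centred on the mode score of non-aggregating sequences. It was computed only for sequences with 100 or more input reads. The reads came from Illumina sequencing of plasmid inserts from psi-negative yeast expressing Sup35N fused to peptides of 20 random codons, induced with 100 μM copper sulfate for 24 hours and grown 7 days at 30°C without adenine and uracil.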
row,Substance,amyloid nucleation score
1,RSHMYSGYIYLIQKTFLREV,-1.29 ± 0.26
2,GCRHYYWMMCNLVTFMKRES,7.237 ± 0.028
3,LRDIYNFGDSHYFRNYSVTE,-0.132 ± 0.31
4,LSKLYTLVRNV,-0.576 ± 0.63
5,MASGRWYSNSTYGDCMGGIA,-0.321 ± 1
6,VRLRTHMFY,-0.831 ± 0.76
7,LSSVMN,-0.565 ± 0.33
8,IRNDKYW,-0.101 ± 0.31
9,TDVPSRIGPDMGKYLKAES,0.655 ± 0.62
10,IFPLDQLQIFWLSLTMTMQL,-0.829 ± 1.1
11,SYLHGDNQLGLSGASFRSRW,inactive
12,VSAKVFSGGKESVMMCWPPL,1.58 ± 0.41
13,MVVRDL,-0.536 ± 1
14,IVDSVR,0.388 ± 0.32
15,FCLFFLASQIIVMGVTTYTG,-0.313 ± 0.76
16,ISDLCNASGWIRKDTSSRRL,-0.27 ± 0.23
17,TLLLTWQY,4.46 ± 0.067
18,ALSSVFYIDFHFDYLYDVTL,2.72 ± 0.2
19,TLFQLFIYLTFKVQVVAGTT,3.92 ± 0.083
20,YSYRVRI,3.71 ± 0.056
21,CASMVIMG,inactive
22,HYRISLSIPHIDHAKAQALL,-0.603 ± 1
23,TFLGLS,0.658 ± 0.26
24,NKRMRVRVEGRLINV,0.089 ± 0.42
25,RFYRSVNFKLYLVA,inactive
26,WWKQWRYTGYLLLSHLSNRS,-0.087 ± 0.42

row,Substance,amyloid nucleation score
1,RLEALRCLSYITSSSLYRCP,0.163 ± 0.41
2,DWRFRSGISISKYLVINLGD,5.79 ± 0.063
3,TEPSGTGKTRGSQRTLHRYV,-0.323 ± 0.79
4,TSVVNLNRMAFKTKFLQNTI,-1.1 ± 1.1
5,TGRITVRRGSHLSLWKSMRL,0.697 ± 0.27
6,AFNATIRNAC,-0.746 ± 0.62
7,WGSMYRYFVDGSWFVVDISP,-0.26 ± 0.27
8,GLRTLERSDVSVGVRRYLG,1.33 ± 0.51
9,VQYMHNRMVLWFFSDPLKDR,2.58 ± 0.099
10,LVLIIK,5.96 ± 0.075
11,QWSAILFSMRWFVKKSEFSC,3.48 ± 0.052
12,VKGKE,2.31 ± 0.14
13,VKLTLRVLLMSRTETHTVCR,0.494 ± 0.44
14,CFGVRDSGRYFDTLSNVRSR,1.11 ± 0.68
15,LSHLISVVRRVRKYSYGEVV,0.389 ± 0.64
16,DGYMMGALQNYCNCTRFVLN,inactive
17,NKTPYIDFVLTR,0.236 ± 1.1
18,AAQIHYSKYNDDVYFSFEEK,0.283 ± 0.37
19,YGQMVLRPFDTFVARQ,-1.05 ± 0.48
20,MVAGITFTNASIWTYNK,3.63 ± 0.075
21,WHGKVGRTAWCLGMLFYDVR,1.02 ± 0.2
22,WYAHGLISVCFVCAGLESLG,-0.251 ± 0.76
23,DQIEIISLKNCTVG,inactive
24,WRDTC,-0.086 ± 0.49
25,CAGMWRFMGMVFGISTLFQC,-1.44 ± 0.41
26,RDFYRWNMQ,3.8 ± 0.069

row,Substance,amyloid nucleation score
1,MVMGTYVIVRLYKHKNCNAY,-1.36 ± 0.55
2,CRYEIKLCYDLMQNPLFTRS,-0.522 ± 0.41
3,LWSRVVVWQDRYVV,inactive
4,HLFYCRSIGDILRSFGETPT,inactive
5,LSLFHPCLL,-0.182 ± 0.3
6,EREVCMFRLYAKRGPAVDWL,2.19 ± 0.21
7,GSLDWRMELWWKFFLHHQPL,0.759 ± 0.74
8,YCVTTVGARCLVKFHHLDSG,2.11 ± 0.15
9,YQMISDSPNINIFYGFYSET,inactive
10,YYLNSTSGKDR,inactive
11,VMLSLMDKLEYMPV,1.31 ± 0.32
12,GLHLHSVAEYVCWGTPLSRL,0.119 ± 0.76
13,TMFTFIAANSRWLNAKIPWY,0.157 ± 0.25
14,CNFKINRAHNELPLDDLRNF,inactive
15,RSFMVRRFVNANIEIMIRRI,inactive
16,KRDPLFRVLGT,0.071 ± 0.79
17,VSRGNAGWS,3.6 ± 0.075
18,SWGLPKVVIGGLQMRLEVGA,0.754 ± 0.39
19,WHKFGNNRANEGRYIMHLMH,-0.282 ± 0.48
20,TLKVCSVLIYLYWN,-1.34 ± 0.75
21,KSGMWAFYSEDKRTSGLLRW,0.626 ± 0.65
22,SVFCRKLTLVAGGDARRDCK,0.497 ± 0.57
23,CGRLGLHYQCMLCCGIGSIL,2.23 ± 0.27
24,YSLLCWVYIRSLNSLNKCCG,3.15 ± 0.075
25,LCFLVFMLRPRLASLYSRML,-1.11 ± 0.36
26,TGSVDSSSIV,0.093 ± 0.42

row,Substance,amyloid nucleation score
1,YLVNNAEMVNMELMISVSGA,-0.337 ± 0.38
2,VRYKSYMDVS,0.87 ± 0.48
3,RTYLGLVLGF,inactive
4,TNGRCVELVMMYKYSLFVGD,1.05 ± 0.61
5,PSSKVL,0.024 ± 0.55
6,PASNWIRYRMTFQDGPYVKR,0.373 ± 0.66
7,FTRTWLCIHAEYARCLGTCV,5.05 ± 0.053
8,AWCFSWHQKLLAR,0.471 ± 0.36
9,KLAYIAMTVSITGFDPCAWD,2.55 ± 0.068
10,LCQHREMALMLGGEPADDWG,1.87 ± 0.36
11,VCHHSSI,inactive
12,FWRKVCVDDRTT,-0.121 ± 0.43
13,VLDSINVSVCSWRVSCVTWL,7.709 ± 0.033
14,RVMFYVINEVWDMNSARTNT,6.38 ± 0.08
15,HCSVSLTFFVLQTPL,4.79 ± 0.069
16,FEIWWLVGVVFWMVSGVNTV,-0.074 ± 0.22
17,TLQLSSADPGLNAFSDVYRV,-0.627 ± 1.1
18,ISLDWAPN,inactive
19,AHFQYRGNRAFQVWNYCGKY,2.55 ± 0.12
20,PLLVLVNFLSGKSPQAHCSH,3.07 ± 0.077
21,LSWYLTYTRLTSLVG,-0.097 ± 0.42
22,IITIIKF,7.164 ± 0.03
23,HCVIQSSYLRD,-0.337 ± 0.54
24,QIVAFY,inactive
25,PNRTFLLKVGA,-1.1 ± 1.1
26,HHNPGVWMKGSPCMWKIVQI,4.76 ± 0.076

row,Substance,amyloid nucleation score
1,LFRYQRPLYGVRRTSTKVMA,0.226 ± 0.37
2,CHCWSELIQIFII,5.86 ± 0.061
3,SMSYDRWKAKS,-0.446 ± 0.48
4,SIRSLMGVRSKNSYCRLTVR,0.011 ± 0.79
5,LERWYYPMS,0.513 ± 0.16
6,GYEWSSVSEQGC,1.27 ± 0.52
7,TVNLGSYSEMRFLLLQEQAS,-0.747 ± 0.63
8,LVDILLMMYWMWQ,0.373 ± 0.45
9,SDINRVVGLPRTRLALRSKR,-0.447 ± 0.54
10,RKEVCTVRNLHSRFRGGAIR,-0.119 ± 0.55
11,PCITRTARSQIVTFKRG,-0.35 ± 1.1
12,RHGMNGRLTFLASTYSASRL,0.349 ± 0.22
13,IMLATAAYFVLLGIFPGAWF,inactive
14,AGSGFRSATWYRASTWMAFG,2.93 ± 0.13
15,SRNFVPVHRCVGGF,inactive
16,FQRFVIK,-2.12 ± 0.44
17,VRDSSNYMTLFRCSNFWHTR,6.488 ± 0.051
18,GKDCSRVNKHWCQRGRQGMV,0.922 ± 0.58
19,CVGSLQLHGVSRRCIRCWGR,1.15 ± 0.4
20,CDFLWWPTQFANRRTKVGVW,0.083 ± 0.76
21,QGCLRQVQMRDRATRIGEVI,0.47 ± 0.25
22,DFCYFSFRPLHLRFQNTDWP,0.007 ± 1.1
23,SRAAPDINS,0.251 ± 0.25
24,TSDITAVFNSFLKFR,-0.744 ± 0.74
